Laboratory results: patent US20050147614A1 (CANCER RESEARCH TECHNOLOGY, published 2005)

Experiments:
[1] = biological target: T1, carcinoembryonic antigen (CEA) (UniProt P06731 35-685, limits assumed, biotinylated (labelled form); unlabelled CEA (Calbiochem) used as competitor in the off-rate assays); test: yeast surface display, equilibrium titration with biotinylated CEA, flow cytometry
T1 construct: also called biotinylated-CEA; bio-CEA
T1 sequence (looked up): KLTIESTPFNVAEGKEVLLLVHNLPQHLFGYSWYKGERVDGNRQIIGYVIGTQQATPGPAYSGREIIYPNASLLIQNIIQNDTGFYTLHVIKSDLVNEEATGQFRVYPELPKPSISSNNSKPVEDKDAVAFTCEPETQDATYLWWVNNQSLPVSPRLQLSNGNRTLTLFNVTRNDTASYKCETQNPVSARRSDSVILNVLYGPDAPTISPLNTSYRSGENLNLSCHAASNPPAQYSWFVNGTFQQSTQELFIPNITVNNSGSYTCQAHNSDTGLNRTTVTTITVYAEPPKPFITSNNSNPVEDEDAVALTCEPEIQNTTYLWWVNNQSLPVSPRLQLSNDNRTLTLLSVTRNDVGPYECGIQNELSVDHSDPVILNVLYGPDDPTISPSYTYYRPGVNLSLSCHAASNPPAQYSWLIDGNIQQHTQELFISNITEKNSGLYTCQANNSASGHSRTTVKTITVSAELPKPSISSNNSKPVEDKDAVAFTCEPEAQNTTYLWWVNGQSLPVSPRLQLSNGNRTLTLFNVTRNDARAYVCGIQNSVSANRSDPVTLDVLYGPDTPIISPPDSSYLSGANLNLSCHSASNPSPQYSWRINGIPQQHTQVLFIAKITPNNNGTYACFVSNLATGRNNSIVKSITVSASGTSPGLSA

[2] = biological target: T1, carcinoembryonic antigen (CEA); test: yeast surface display, off-rate analysis with biotinylated CEA and excess unlabelled CEA, flow cytometry

B1: sm3E (scFv)
scFv: PYDVPDYALQASGGGGSGGGGSGGGGSASQVKLEQSGAEVVKPGASVKLSCKASGFNIKDSYMHWLRQGPGQRLEWIGWIDPENGDTEYAPKFQGKATFTTDTSANTAYLGLSSLRPEDTAVYYCNEGTPTGPYYFDYWGQGTLVTVSSGGGGSGGGGSGGGGSENVLTQSPSSMSVSVGDRVTIACSASSSVPYMHWLQQKPGKSPKLLIYLTSNLASGVPSRFSGSGSGTDYSLTISSVQPEDAATYYCQQRSSYPLTFGGGTKLEIKAAAGSEQKLISEEDL
notes: also called stabilized m3E
B1 showed a Kd [1] of 0.03 nM and a koff [2] of 1.2e-06 s⁻¹.
